Target: T1, ATF1 (Homo sapiens, UniProt P18846 SEQ:1-271)
T1 sequence: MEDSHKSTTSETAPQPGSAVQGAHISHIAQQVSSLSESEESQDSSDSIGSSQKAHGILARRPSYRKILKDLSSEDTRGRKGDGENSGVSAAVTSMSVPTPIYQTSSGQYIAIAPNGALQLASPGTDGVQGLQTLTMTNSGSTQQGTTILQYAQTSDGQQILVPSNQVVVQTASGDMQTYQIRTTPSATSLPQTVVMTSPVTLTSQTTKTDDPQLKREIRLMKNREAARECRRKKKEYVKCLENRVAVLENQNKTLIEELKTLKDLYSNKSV
Assay: competition; 100-fold excess unlabeled AP1 did not diminish ATF1/CRE complex
Settings: tags: E. coli pET-11d, DNA-cellulose purified

B1: AP1 oligonucleotide (dsDNA)
DNA 1: CGCTTGATGAGTCAGCCGGAA
DNA 2: TTCCGGCTGACTCATCAAGCG
  binding result: no binding
